In a protein production outcome set (Wang et al. 2014) one finds protein production data, which are given here for 16 sequences.
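Note: failed if final PepcDB status was selected cloned or expressed and not failed if soluble or beyond.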

The series can be described thus: label from the status in PepcDB records.
“MCWVCGENLQAQPYMFRNVVMSDGLSGLLVNAIYKDSEGFIWLGTDNGLDRFDGVKVKHFEFRGVDSGRKKRVNCITETDNKQLWIGNGIGLWRLNRSGSELQRIVPEKIDCAVNALLADGDVLYIGTERGLFIQKDGQLLQVQTDKNMLAACNRIMDLCLNEDKSVLWLATVQGLFSYSLKDGQINSWHFRENVPEADYFRCLTRIGETLYLGTMSQGVVCFDIPKQTFAHTVSLGCDVISDISGDGKETVYIATDGNGVHFLSHKDRKVVRRFFHDVNDKEGIRSNSIYSLLVDDRGAVWVGHFQAGLDYSLYQNGLFRTYAYPPQFNSANLSIRSFVNRGPEKVIGSRDGLFYINEATGIVKSFVKPVLTSDLILTICFYEGEYYIGTYGGGMMVLNPQTLSLKYFTQGDTELFQKGHIFCVKPDNRGNLWIGTSQGLFCYNGQTKQIKNFTSTNSQLPEGNVYEVSFDSTGKGWIATETGMCIYDPASQSLRSNVFPEGFVHKDKVRTIYEDAEHNLYFIREKGSLFTSTLTMDHFRNQSVLSTLPDNSLMSITEDNQGWLWVGCNDGLLRIKEEGEEYDSFTFNDGVPGPTFTNGAAYKDERGLLWFGNTKGLIYVDPKQVDEVRGKVRPIVFTDILANGVSINKSSLKYNQNNLTFCFTDFAYGLPSALLYEYKLEGADSDWKLLTAQSEVSYYGLSSGTYTFCVRIPGNEQSMAIYKVTVQPMIPWWGWVILAISIILIVVLVRYYVRKSAPLVTEVHEISSEEEEEEEKTAEPHPAEEKYKANRMSEAECKELHDRLVAYVEKEKPYINPDLKMGELAAALHTSSHSLSYLLNQYLNQSYYDFINEYRVAQFKKMVEDSDYSRYTLTALAELCGFSSRASFFRSFKKSTGVTPNEYIRSIGGTAKDE”: the protein production result is reported as “failed”.
Under “MDAAVTDDFQQILPIEQLRSTHASNDYVERPPAPCKQALSSPSLIVQTHKSDWSLATMPTSLPRSLSQCHQLQPLPQHLSQSSIASSMSHSTTASDQRLLASITPSPSGQSIIRTQPGAGVHPKADGALKGEAEQSAGHPSEHLFICEECGRCKCVPCTAARPLPSCWLCNQRCLCSAESLLDYGTCLCCVKGLFYHCSTDDEDNCADEPCSCGPSSCFVRWAAMSLISLFLPCLCCYLPTRGCLHLCQQGYDSLRRPGCRCKRHTNTVCRKISSGSAPFPKAQEKSV” stands “failed”; under “MDAKEDVRPTGRGGRGVTAKSHVIVTSNMSVRQFLDVKYTTMNLNLFLSLDPIVDDNQNTLIKKDCSGRVDKDKGIVGDAQVFYTNGFKMSAMVTKHTNRSYLNNPTSIRRKLFDDAGVKGSNGVVRFHSVETSNVVTISVVNDFYNNEMGDDGVTNVTGIIRLARSTNGDSN”, “failed”.
The same measure for “MDALLTKFNEDRSLQDENLSQPRTRVRIVDDNLYNKSNPFQLCYKKRDYGSQYYHIYQYRLKTFRERVLKECDKRWDAGFTLNGQLVLKKDKVLDIQGNQPCWCVGSIYCEMKYKPNVLDEVINDTYGAPDLTKSYTDKEGGSDEIMLEDESGRVLLVGDFIRSTPFITGVVVGILGMEAEAGTFQVLDICYPTPLPQNPFPAPIATCPTRGKIALVSGLNLNNTSPDRLLRLEILREFLMGRINNKIDDISLIGRLLICGNSVDFDIKSVNKDELMISLTEFSKFLHNILPSISVDIMPGTNDPSDKSLPQQPFHKSLFDKSLESYFNGSNKEILNLVTNPYEFSYNGVDVLAVSGKNINDICKYVIPSNDNGESENKVEEGESNDFKDDIEHRLDLMECTMKWQNIAPTAPDTLWCYPYTDKDPFVLDKWPHVYIVANQPYFGTRVVEIGGKNIKIISVPEFSSTGMIILLDLETLEAETVKIDI”: “failed”; for “MDANEFHWLMDMLESVEVGLVVLDLDFHVQAWNGFMEHHSGITARQIRDKVLFEVFPDIPEAWLTRKVDAVAMLNTRAFTSWEQRPYLFKFRNTRPITGTEEYMFQNLTISPITAPNGEVEKVCLLVYDVTEFASSKRALERANEQLAKLSMTDRLTGLLNRGTWENLVDAEYERFRRYGQATSLVMFDIDHFKPVNDTYGHLAGDEVIRHTADVTRNNIRQSDSAGRYGGEEFGIILPETDAESARVICERIREAIEKSTVSTSAGDIQYTVSMGIAQLTETPENYMQWMQKADEALYKAKESGRNKVVVSLEHHHHHH”: “failed”.
Under “MDAPKAGYAFEYLIETLNDSSHKKFFDVSKLGTKYDVLPYSIRVLLEAAVRNCDGFLMKKEDVMNILDWKTKQSNVEVPFFPARVLLQDFTGIPAMVDFAAMREAVKTLGGDPEKVHPACPTDLTVDHSLQIDFSKCAIQNAPNPGGGDLQKAGKLSPLKVQPKKLPCRGQTTCRGSCDSGELGRNSGTFSSQIENTPILCPFHLQPVPEPETVLKNQEVEFGRNRERLQFFKWSSRVFKNVAVIPPGTGMAHQINLEYLSRVVFEEKDLLFPDSVVGTDSHITMVNGLGILGWGVGGIETEAVMLGLPVSLTLPEVVGCELTGSSNPFVTSIDVVLGITKHLRQVGVAGKFVEFFGSGVSQLSIVDRTTIANMCPEYGAILSFFPVDNVTLKHLEHTGFSKAKLESMETYLKAVKLFRNDQNSSGEPEYSQVIQINLNSIVPSVSGPKRPQDRVAVTDMKSDFQACLNEKVGFKGFQIAAEKQKDIVSIHYEGSEYKLSHGSVVIAAVISCTNNCNPSVMLAAGLLAKKAVEAGLRVKPYIRTSLSPGSGMVTHYLSSSGVLPYLSKLGFEIVGYGCSTCVGNTAPLSDAVLNAVKQGDLVTCGILSGNKNFEGRLCDCVRANYLASPPLVVAYAIAGTVNIDFQTEPLGTDPTGKNIYLHDIWPSREEVHRVEEEHVILSMFKALKDKIEMGNKRWNSLEAPDSVLFPWDLKSTYIRCPSFFDKLTKEPIALQAIENAHVLLYLGDSVTTDHISPAGSIARNSAAAKYLTNRGLTPREFNSYGARRGNDAVMTRGTFANIKLFNKFIGKPAPKTIHFPSGQTLDVFEAAELYQKEGIPLIILAGKKYGSGNSRDWAAKGPYLLGVKAVLAESYEKIHKDHLIGIGIAPLQFLPGENADSLGLSGRETFSLTFPEELSPGITLNIQTSTGKVFSVIASFEDDVEITLYKHGGLLNFVARKFS” stands “not failed”.
In the case of “MDCIRNNSVLINNLSSFTSGIMSSGYSPFYILYIAMNIATLTYAVGTLFYGLPIPIYGLKKWGPRMMSDAIYAAVWVNIYGIIIFAIGQIQSLLGVDWSSFFSSILQLQANMFSALIQVKSLYYIITTEKISMALALLADPVLQFSSFITDIIFLLQFFIDLGEFIQQSYMILIAIGILLLSLPFRMGKGVGGTLISSAIIFYIGLPYLPIFMQEMSSITLSQIGSQLSTITDVNTLVETIAGVVPELVIVFIIIPMLYLSILAGISLGLGNAIGGSSGRVPFPLDLF”, the protein production entry is on record as “failed”.
In the case of “MDCKKFIQMVEEKKRRVLEKQEAPLKWEQKLEAAANAKADTETKVKRSKGPKRKQRAASESSSESDSSSEVRRKSRRSHNKHRRHAHSDSDDSDRRKEKKSRRQKRRSLSPSDDSTGDYESGSEDELRMKIKHHRRHKWHSSRKTCDDDSTEDVRRKHLKHHRRSEVVTSSDSEEESGRRRRGKYHRHNRGSASSSGSEEDSGKSMKRRQHKRHRLAESSSEEDGAMRRTRHHKHGRDSASESDGRR”, the protein production entry is on record as “failed”.
Regarding “MDCRKMARFSYSVIWIMAISKVFELGLVAGLGHQEFARPSRGYLAFRDDSIWPQEEPAIRPRSSQRVPPMGIQHSKELNRTCCLNGGTCMLGSFCACPPSFYGRNCEHDVRKENCGSVPHDTWLPKKCSLCKCWHGQLRCFPQAFLPGCDGLVMDEHLVASRTPELPPSARTTTFMLVGICLSIQSYY”, the protein production result was “failed”.
Under “MDDAERERGPWHRNLIVLWFCTFVAGMAFSEIMPFLSLFVSQLGDFTKAQITFYSGLAFAADYAISAISAPLWGIIADKKGRKIMLLRASLGMAVAMGLMGFVTNVWQLVALRALQGVFAGFISNAQALVASQTPRKYSGRALSTLITGAVSGQLFGPVIGGLLAQLFSIRNTFFITAGLLMVAFLLSLFFVQEHFKPVAHHREPGDSRNPLAAFQNPRLIIVMLCSTAIVQFGNASIAPIISLYVRELMHYRGPITVVAGIIAALPGISNIFSAPRLGRYGDQHGSGKVLLFGYIFAVIMYFPQGIVTSVVALGILRFAIGISDGALYPEIQTVLTKNTPVHLTSTIFSYNQSFQAIGNMFGALLGGLVAGWFNYNAVFIMTALLLLINLGLILWLVPDIWKNGKRAVS” stands “failed”.
On to “MDDETLRLQFGHLIRILPTLLEFEKKGYEPSLAEIVKASGVSEKTFFMGLKDRLIRAGLVKEETLSYRVKTLKLTEKGRRLAECLEKCRDVLGS”, for which the protein production entry was “not failed”.
“MDDSKSSYKLGLFVVSALVSLFVVLFILGGRSLFEPKIIVETYFDESVSGLEVGAPVRFRGITAGEVVSIELSDALYEAAVPRENRKSYVVVRSEITGAKRTIEEWNRSIEISIERGLRATTQLAGITGQQYLSFDYTSMDEGLSFNWKPNYPYVPSTKSSAGKIVSGIQSLIARLDEADINTLVANINMLIETLNQSISALDADALNAQLLALLINSNQMVKSVDGVISDPEVKEIVSSLAQISKSLNSSLKDKGDINKLIKHLDRAAVRLDVIMADNQSDINYVIKDLRVTVENLKSFSETLKNQPSSIIFSSEPEKLKIN”: the protein production entry is recorded as “failed”.
Turning to “MDDVQVERILQNPKFKKMVSKKATLSWTLTIIMLIVYVGFMLLVGYNKEFLMSSFSGGVTTWGIPLGLGIIVLSFVLCGVYSYIANNTLDQLNEEALREVENITHEKGLH”, the protein production entry was “failed”.
Under “MDECTVTRHYEGKGRNAGRLGAVGCKNRHGEFRIGSGFKDKDRDNPPKIGTLITYRYRGFTRKGTPKFATFVRVRTDLEHHHHHH” stands “not failed”; under “MDEKNIVALLGQPNVGKTTLFNHLTGMKQRIGNWPGVTVEKKEGFFKKNNENYVVVDLPGIYSLMSDSIDQKIARDYIVENSKITVIDVIDTPNINRNLYLTIQLLELGISPILCLNLIDEAEKFGIYVNDQKLSEKLGVPVIRTSGRHKIGIDNLKNALYEFKPTEPVKITYSSLLEETIEKIIDKLENSQYKLDEIYARLPKRWIAISLLEKDPDVVNKFSKYPEFIKFVKDLKIEIENEIKHDVESYVVEQRYKKCDEILAGVMVNSELYEDIDTIVIHPVYGSLIFGVVLYTMYNFVFGLGDIFSGFIGSFFEILGNYLMNILPESFSGVIIDGLLAGVGGVLEFFPIVFLIMFSLSTLEDTGYLSRVTALTHSVMSTMGLSGKSFIPMITGFGCSVPALMGTRFISSHKERLITLLVTPLVPCSARFVIIGFFASFFFIEHAALFTLSILAITFAMLFIVSYVLSKFIKGEAEEYIFELPPYRIPDWDNIIKMTWAKSKEFLKKAGTVIAAGSILFYGFVNYPSPDANYAAVVGKIIEHVTQYMGLDWRAAISLIFGIFAKELVVSSFSILYPENISTAFSPLKAFVLTLVSVLYIPCLATLATLYLETRSLKWTAFGIGYNLVLATLVGIITYNIGTMLGF”, “failed”.
As to “MDELAGGGGGGQGMAAPPRPQQGPGGNLSLPPGANGAPGGGGPPAAEAAGPPAGPELSRPQQYTIPGILHYIQHEWARFEMERAHWEVERAELQARIAFLQGERKGQENLKKDLVRRIKMLEYALKQERAKYHKLKYGTELNQGDLKMPTFESEETKDVEAPPAPQNSQLTWKQGRQLLRQYLQEVGYTDTILDVRSQRVRSLLGLSNSEPNGSVEAKNLEQILNGGESPKQKGQEIKRPPGDVLETFNFLENADDSDEEENDMIEGIPEGKDKLRIHKHKIGNEGLAADLTDDPDTEEALKEFDFLVTAEDGEGAGEARSSGDGTEWDKDDLSPTAEVWDVDQGLISKLKEQYKKERKGKKGVKRVNRTNLCDMITDLGDDELPHIPSGIINQSRSASTRMADHEGARAEEAEPITFPSGGGKSFIMGSDDVLLSVLGLGDLADLTVTNDADYSYDLPANKDAFRKTWNPKYTLRSHFDGVRALAFHPVEPVLVTASEDHTLKLWNLQKTVPAKKSASLDVEPIYTFRAHIGPVLSLAISSNGEQCFSGGIDATIQWWNMPSPNVDPYDTYESNVLAGTLVAHTDAVWGLAYSGIKNQLLSCSADGTIRLWNPQEKLPCVCTYNGDKEHGIPTSVDFIGCDPAHMVTSFNTGSAVIYDLETSQSLVMLSSQVDSGLQSSNHINRVVSHPTLPVTITAHEDRHIKFFDNKTGKMIHSMVAHLDAVTSLAVDPNGIYLMSGSHDCSIRLWNLDSKTCVQEITAHRKKLDESIYDVAFHPSKAYIASAGADALAKVFV”, the protein production entry is reported as “failed”.
